# Measurements published in PMC7104937.
# B1: soluble ectodomain protein of human CD26 (hCD26), P27487 29-766 (receptor)
# chain: NKGTDDATADSRKTYTLTDYLKNTYRLKLYSLRWISDHEYLYKQENNILVFNAEYGNSSVFLENSTFDEFGHSINDYSISPDGQFILLEYNYVKQWRHSYTASYDIYDLNKRQLITEERIPNNTQWVTWSPVGHKLAYVWNNDIYVKIEPNLPSYRITWTGKEDIIYNGITDWVYEEEVFSAYSALWWSPNGTFLAYAQFNDTEVPLIEYSFYSDESLQYPKTVRVPYPKAGAVNPTVKFFVVNTDSLSSVTNATSIQITAPASMLIGDHYLCDVTWATQERISLQWLRRIQNYSVMDICDYDESSGRWNCLVARQHIEMSTTGWVGRFRPSEPHFTLDGNSFYKIISNEEGYRHICYFQIDKKDCTFITKGTWEVIGIEALTSDYLYYISNEYKGMPGGRNLYKIQLSDYTKVTCLSCELNPERCQYYSVSFSKEAKYYQLRCSGPGLPLYTLHSSVNDKGLRVLEDNSALDKMLQNVQMPSKKLDFIILNETKFWYQMILPPHFDKSKKYPLLLDVYAGPCSQKADTVFRLNWATYLASTENIIVASFDGRGSGYQGDKIMHAINRRLGTFEVEDQIEAARQFSKMGFVDNKRIAIWGWSYGGYVTSMVLGSGSGVFKCGIAVAPVSRWEYYDSVYTERYMGLPTPEDNLDHYRNSTVMSRAENFKQVEYLLIHGTADDNVHFQQSAQISKALVDVGVDFQAMWYTDEDHGIASSTAHQHIYTHMSHFIKQCFSLP
# Molecular target: soluble ectodomain protein of human CD26 (hCD26) (human), P27487
# Assay: crystal structure
# Settings: remark: other sources report otherwise
binder,measurement,value
B1,stoichiometry N,2
